This is an account of results in publication PMC8109025 (Bioconjugate chemistry, 2020).

For data set [1], the target named is 1N:1E nanobody-enzyme megamolecule (one cutinase-5F7 nanobody fusion covalently linked to one SnapTag-yCD fusion) (yeast). The data set is described as follows: negative-stain transmission electron microscopy.
Data set [2] has the same target. The data set is described as follows: enzyme activity against protein concentration.
The target is the same in data set [3]. The data set is described as follows: SEC. Background: SEC sorts molecules by how far they enter the pores of the column.
In data set [4] the target is 2N:1E nanobody-enzyme megamolecule (two cutinase-5F7 nanobody fusions covalently linked to one SnapTag-yCD fusion) (yeast). The experiment in a line: negative-stain transmission electron microscopy.
Data set [5] has the same target. The experiment in a line: SEC.
Data set [6] deals with the molecule itself. The experiment in a line: enzyme activity against protein concentration.
The data set “SEC” deals with the molecule itself. The data set is described as follows: SEC.

One may read the stoichiometry N as a count of units in the complex or per binding partner. By Kd is commonly meant the equilibrium constant for the complex coming apart. A low value points to tighter binding. On to “1N:1E nanobody-enzyme megamolecule (one cutinase-5F7 nanobody fusion covalently linked to one SnapTag-yCD fusion)”, for which the stoichiometry N in data set [1] and in data set [3] was 2 throughout. This molecule also showed a Kd in data set [2] of 38 µM.

“2N:1E nanobody-enzyme megamolecule (two cutinase-5F7 nanobody fusions covalently linked to one SnapTag-yCD fusion)”: the stoichiometry N in data set [4] and in data set [5] was 2 in each case.

B1: SnapTag-yeast cytosine deaminase fusion protein (enzyme, UniProt Q12178 1-158, looked up)
chain: MVTGGMASKWDQKGMDIAYEEAALGYKEGGVPIGGCLINNKDGSVLGRGHNMRFQKGSATLHGEISTLENCGRLEGKVYKDTTLYTTLSPCDMCTGAIIMYGIPRCVVGENVNFKSKGEKYLQTRGHEVVVVDDERCKKIMKQFIDERPQDWFEDIGE
For B1, the dissociation constant (Kd) in data set [6] came to 12 µM. Besides, the “stoichiometry N” value in the data set “SEC” worked out at 2.
